# Article PMC3406927
# Tests used:
# [1] = target: TLR5-N14VLR (zebrafish, Danio rerio | hagfish) (UniProt B3DIN1); test: fluorescence polarisation
# [2] = target: drTLR5-ECD (zebrafish, Danio rerio); test: fluorescence polarisation
substance,measurement,setting,value
CBLB502-ΔD0 (from UniProt Q06971 1-505) (ligand),fold change in binding affinity (against CBLB502),[1],2 to 3 fold
same,fold change in binding affinity (against CBLB502),[2],2 to 3 fold
